Experiment [1] has as its target T1, HPV16 E6/TIP 1 interaction (Homo sapiens, UniProt O14907).
T1 construct: made in house; host or cells: E. coli
T1 sequence (O14907 14-116): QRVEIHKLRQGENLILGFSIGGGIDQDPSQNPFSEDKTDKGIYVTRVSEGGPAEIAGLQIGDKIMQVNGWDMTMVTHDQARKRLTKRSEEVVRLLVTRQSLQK
In words: Modified G assay, inhibition of TIP1-HPV E6 16 binding. The note with it: HPV E6 16 peptide 10 uM, TIP1 fusion protein 5 ug/mL, Tax peptide 0.001-100 uM, FIG. 3. How it is done: In one embodiment (in which a G assay is used), one or more PDZ domain-containing GST-fusion proteins are bound to the surface of wells of a 96-well plate as described supra (with appropriate controls including nonfusion GST protein). All fusion proteins are bound in multiple wells so that appropriate controls and statistical analysis can be done. A test compound in BSA/PBS (typically at multiple different concentrations) is added to wells. Immediately thereafter, 30 uL of a detectably labeled (e.g., biotinylated) peptide known to bind to the relevant PDZ domain (see, e.g., TABLE 3) is added in each of the wells at a final concentration of, e.g., between about 2 uM and about 40 uM, typically 5 uM, 15 uM, or 25 uM. […] The surface is washed free of unbound peptide three times with ice cold PBS and the amount of binding of the peptide in the presence and absence of the test compound is determined. Usually, the level of binding is measured for each set of replica wells (e.g. duplicates) by subtracting the mean GST alone background from the mean of the raw measurement of peptide binding in these wells. […]
Protocol • 1. […] Take early readings, if necessary, at 650 nm • 17. At 30 minutes, stop reaction with 100 ul of 0.18M H2SO4, and take final reading at 450 nm […]

In experiment [2] the test system is c-JUN N-terminal kinase (JNK). The experiment is described as follows: Jun kinase assay in microinjected Xenopus oocytes. In kind it is cell-based. Details: inhibition of HPV16 E6-dependent JNK activation by co-injected peptide: dose or concentration left out as unconfirmed. The note with it: Xenopus oocytes; for JNK activation by microinjected E6 fusion protein: MBP-E6 or GST-E6 protein (100 nM, 3h), GST-Jun phosphorylation. On the procedure:
Experimental Design: This experiment was divided into two phases. In the first phase, an MBP-E6 fusion protein (HPV16; see example 4) was microinjected into Xenopus oocytes at different concetrations and then the oocytes were assayed for INK activity. In the second phase, peptides corresponding to the C-termini of non-oncogenic E6 protein (HPV11), HPV16 E6 (oncogenic) or Tax (shown to block oncogenic E6 binding to PDZ domains, FIG. 3) were co-injected with an activating amount of MBP-E6 fusion protein to assess ther abilities to block JNK activation.
Isolation and Microinjection of Oocytes—Xenopus ovarian tissue was surgically removed, and oocytes were defolliculated for 1-1.5 h at room temperature with 2 mg/ml collagenase and 0.5 mg/ml polyvinylpyrrolidone in Ca21-free modified Barth's solution (88 mM NaCl, 1 mM KCl, 0.82 mM MgSO4, 2.4 mM NaHCO3, 10 mM HEPES, pH 7.5). The oocytes were then washed four times with modified Barth's solution. Stage VI oocytes were sorted manually and incubated at 16° C. for at least 10 h in OR2 solution (82.5 mM NaCl, 2.5 mM KCl, 1 mM CaCl2, 1 mM Na2HPO4, 5 mM HEPES, pH 7.5) supplemented with 1 mg/ml bovine serum albumin and […] gentamicin. Immature oocytes were microinjected with purified MBP-E6 protein or E6 protein and peptide and transferred to fresh OR2 for the duration of the time course. Five oocytes were collected per time point, frozen on dry ice, and stored at −80° C.
Lysis of Oocytes, Eggs, and Embryos—Frozen oocytes, eggs, and embryos were thawed rapidly and lysed by pipetting up and down in 60 ml of ice-cold extraction buffer (EB) (0.25 M sucrose, 0.1 M NaCl, 2.5 mM MgCl2, 20 mM HEPES, pH 7.2) containing 10 mM EDTA, protease inhibitors (10 mg/ml leupeptin, 10 mg/ml pepstatin, 10 mg/ml aprotinin, 1 mM phenylmethylsulfonyl fluoride), and phosphatase inhibitors (50 mM 2-glycerophosphate, 1 mM sodium orthovanadate, 2 mM microcystin). Samples were clarified by centrifugation for 2.5 min in a Beckman E microcentrifuge with a right angle rotor. Crude cytoplasm was collected and processed for immunoblotting or kinase assays, as described below.
Jun Kinase Assay—Jun kinase assays were performed as described. Crude oocyte, egg, or embryo cytoplasm was diluted 1:1 in EB and pre-cleared with 20 ml of glutathione-Sepharose beads (Amersham Pharmacia Biotech) for 1 h at 4° C. with moderate shaking. Lysates were incubated with glutathione S-transferase GST-c-Jun-(1-79) fusion protein (hereafter denoted GST-Jun) immobilized on glutathione- Sepharose beads. After 3 h at 4° C., the beads were washed three times with 50 mM HEPES, pH 7.5, 150 mM NaCl, 1% Triton X-100, 1 mM EDTA, 10% glycerol, 10 mM sodium pyrophosphate, 2 mM sodium orthovanadate, 10 mM sodium fluoride, 1 mM phenylmethylsulfonyl fluoride, and 10 mg/ml aprotinin (24) and once with 0.4 ml of kinase buffer (20 mM HEPES, pH 7.5, 10 mM MgCl2, 1 mM dithiothreitol, 200 mM sodium orthovanadate). The bound JNK activity was detected by the addition of 1 mCi of [g-32]JATP. The reaction was terminated after 20 min at 30° C., and the products were resolved by SDS-PAGE. The gels were transferred to PVDF membranes (Hybond; Amersham Pharmacia Biotech) and the incorporation of [32P]phosphate into GST-Jun was visualized by autoradiography. […]

From US20100120700A1, “METHODS AND COMPOSITIONS FOR TREATING CERVICAL CANCER” (priority 2000, published 2010) come the findings set out here.

“Also recorded” adds a separate entry of the source.

“Tax PL peptide: unlabeled peptide corresponding to the C-terminus of Tax, an independent PDZ ligand that binds similar PDZ domains (QISPGGLEPPSEKHFRETEV)”: the “inhibition of binding between TIP1 and HPV E6 16 (A450)” value is “decrease binding between TIP1 and HPV E6 16” in experiment [1]; “Inhibition of the interaction between HPV E6 16 and TIP1” in experiment [1] (listed as Tax peptide). Besides, the “inhibition of HPV16 E6-dependent JNK activation by co-injected peptide” value in experiment [2] (co-injected with activating amount of HPV16 E6 fusion protein) is “can be inhibited by co-injection”.
As for “HPV18 E6: recombinant GST-E6 fusion protein of HPV18 microinjected into Xenopus oocytes”, the “JNK activation by microinjected E6 fusion protein” value in experiment [2] is reported as “activated the JNK MAPK pathway in the oocyte”.

B1: HPV16 E6: recombinant full length HPV16 E6 fusion protein (MBP-E6 or GST-E6) microinjected into Xenopus oocytes (protein)
chain: MHQKRTAMFQDPQERPRKLPQLCTELQTTIHDIILECVYCKQQLLRREVYDFAFRDLCIVYRDGNPYAVCDKCLKFYSKISEYRHYCYSLYGTTLEQQYNKPLCDLLIRCINCQKPLCPEEKQRHLDKKQRFHNIRGRWTGRCMSCCRSSRTRRETQL
As to B1, the “JNK activation by microinjected E6 fusion protein” value in experiment [2] was “activates c-JUN N-terminal kinase; also recorded: activated the JNK MAPK pathway in the oocyte”; in experiment [2] (listed as HPV E6 16), “activates c-JUN N-terminal kinase (JNK)”.
